Laboratory results: patent publication US20150344570A1 (published 2015)

T1: FcγRIIa R (human, UniProt P12318 34-217)
T1 construct: extracellular domain; also called FcgRIIa R type; 2aR
T1 sequence (looked up): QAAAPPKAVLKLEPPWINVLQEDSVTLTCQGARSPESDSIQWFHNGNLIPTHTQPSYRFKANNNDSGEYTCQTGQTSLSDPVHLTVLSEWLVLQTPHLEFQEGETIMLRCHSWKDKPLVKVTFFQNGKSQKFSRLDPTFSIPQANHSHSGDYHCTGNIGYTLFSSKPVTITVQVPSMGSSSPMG

B1: GpH7-B3 variant N325_15Y/GpL16-k0 (antibody, human IgG1, kappa)
heavy: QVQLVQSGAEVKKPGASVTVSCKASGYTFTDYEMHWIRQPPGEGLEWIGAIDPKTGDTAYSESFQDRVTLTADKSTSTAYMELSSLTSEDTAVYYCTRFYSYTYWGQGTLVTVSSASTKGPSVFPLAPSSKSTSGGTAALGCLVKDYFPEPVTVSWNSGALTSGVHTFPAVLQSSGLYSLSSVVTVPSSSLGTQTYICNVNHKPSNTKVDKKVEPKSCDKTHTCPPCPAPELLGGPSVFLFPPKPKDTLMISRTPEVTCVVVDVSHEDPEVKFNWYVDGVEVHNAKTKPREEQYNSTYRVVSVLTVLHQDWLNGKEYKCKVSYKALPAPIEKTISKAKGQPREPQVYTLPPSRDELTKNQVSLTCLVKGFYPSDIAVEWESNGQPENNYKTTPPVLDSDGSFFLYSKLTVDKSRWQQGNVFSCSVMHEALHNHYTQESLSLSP
light: DIVMTQSPLSLPVTPGEPASISCQASESLVHSNRNTYLHWYLQKPGQSPQLLIYKVSNRFSGVPDRFSGSGSGTDFTLKISRVEAEDVGVYYCSQNTHVPPTFGQGTKVEIERTVAAPSVFIFPPSDEQLKSGTASVVCLLNNFYPREAKVQWKVDNALQSGNSQESVTEQDSKDSTYSLSSTLTLSKADYEKHKVYACEVTHQGLSSPVTKSFNRGEC
notes: also called Ho Ab N325_15Y
B2: GpH7-A5/GpH7-B3 variant N325_01G/GpL16-k0 (antibody, human IgG1, kappa)
heavy 1: not shown
heavy 2: not shown
light: B1 light
notes: also called He Ab N325_01G
B3: GpH7-A5/GpH7-B3 variant G237_04F/GpL16-k0 (antibody, human IgG1, kappa)
heavy 1: not shown
heavy 2: not shown
light: B1 light
notes: also called He Ab G237_04F
B4: GpH7-A5/GpH7-B3 variant A330_19Q/GpL16-k0 (antibody, human IgG1, kappa)
heavy 1: not shown
heavy 2: not shown
light: B1 light
notes: also called He Ab A330_19Q
B5: GpH7-B3 variant P271_10E/GpL16-k0 (antibody, human IgG1, kappa)
heavy: not shown
light: B1 light
notes: also called Ho Ab P271_10E
B6: GpH7-B3 variant P238_19Q/GpL16-k0 (antibody, human IgG1, kappa)
heavy: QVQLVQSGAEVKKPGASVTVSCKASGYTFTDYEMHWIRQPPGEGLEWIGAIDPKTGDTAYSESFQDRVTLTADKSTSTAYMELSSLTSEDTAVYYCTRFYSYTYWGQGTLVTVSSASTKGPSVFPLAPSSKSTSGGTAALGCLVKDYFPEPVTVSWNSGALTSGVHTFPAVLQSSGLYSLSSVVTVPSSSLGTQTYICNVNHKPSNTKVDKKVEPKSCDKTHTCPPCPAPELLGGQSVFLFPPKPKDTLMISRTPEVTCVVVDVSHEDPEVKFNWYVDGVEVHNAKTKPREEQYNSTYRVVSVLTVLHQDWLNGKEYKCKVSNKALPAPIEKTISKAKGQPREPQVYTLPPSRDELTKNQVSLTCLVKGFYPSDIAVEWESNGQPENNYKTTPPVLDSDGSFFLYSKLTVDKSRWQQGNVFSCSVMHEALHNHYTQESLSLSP
light: B1 light
notes: also called Ho Ab P238_19Q
B7: GpH7-A5/GpH7-B3 variant A330_01G/GpL16-k0 (antibody, human IgG1, kappa)
heavy 1: not shown
heavy 2: not shown
light: B1 light
notes: also called He Ab A330_01G
B8: GpH7-B3 variant P238_20W/GpL16-k0 (antibody, human IgG1, kappa)
heavy: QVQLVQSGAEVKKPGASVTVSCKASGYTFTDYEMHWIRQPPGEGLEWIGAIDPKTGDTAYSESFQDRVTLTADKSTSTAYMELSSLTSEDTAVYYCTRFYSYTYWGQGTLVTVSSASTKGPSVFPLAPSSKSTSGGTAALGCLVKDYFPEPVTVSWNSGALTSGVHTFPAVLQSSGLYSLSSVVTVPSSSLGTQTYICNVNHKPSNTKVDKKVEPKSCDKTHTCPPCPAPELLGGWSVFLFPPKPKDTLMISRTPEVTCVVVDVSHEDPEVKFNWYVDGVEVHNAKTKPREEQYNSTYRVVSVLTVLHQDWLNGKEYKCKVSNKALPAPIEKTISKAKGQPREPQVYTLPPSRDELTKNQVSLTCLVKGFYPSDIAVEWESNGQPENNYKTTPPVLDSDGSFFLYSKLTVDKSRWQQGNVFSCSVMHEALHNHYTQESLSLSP
light: B1 light
notes: also called Ho Ab P238_20W
B9: GpH7-A5/GpH7-B3 variant G237_15Y/GpL16-k0 (antibody, human IgG1, kappa)
heavy 1: not shown
heavy 2: not shown
light: B1 light
notes: also called He Ab G237_15Y
B10: GpH7-A5/GpH7-B3 variant A330_12R/GpL16-k0 (antibody, human IgG1, kappa)
heavy 1: not shown
heavy 2: not shown
light: B1 light
notes: also called He Ab A330_12R
B11: GpH7-B3 variant P238_04F/GpL16-k0 (antibody, human IgG1, kappa)
heavy: not shown
light: B1 light
notes: also called Ho Ab P238_04F
B12: GpH7-A5/GpH7-B3 variant A327_10E/GpL16-k0 (antibody, human IgG1, kappa)
heavy 1: not shown
heavy 2: not shown
light: B1 light
notes: also called He Ab A327_10E
B13: GpH7-B3 variant P271_09D/GpL16-k0 (antibody, human IgG1, kappa)
heavy: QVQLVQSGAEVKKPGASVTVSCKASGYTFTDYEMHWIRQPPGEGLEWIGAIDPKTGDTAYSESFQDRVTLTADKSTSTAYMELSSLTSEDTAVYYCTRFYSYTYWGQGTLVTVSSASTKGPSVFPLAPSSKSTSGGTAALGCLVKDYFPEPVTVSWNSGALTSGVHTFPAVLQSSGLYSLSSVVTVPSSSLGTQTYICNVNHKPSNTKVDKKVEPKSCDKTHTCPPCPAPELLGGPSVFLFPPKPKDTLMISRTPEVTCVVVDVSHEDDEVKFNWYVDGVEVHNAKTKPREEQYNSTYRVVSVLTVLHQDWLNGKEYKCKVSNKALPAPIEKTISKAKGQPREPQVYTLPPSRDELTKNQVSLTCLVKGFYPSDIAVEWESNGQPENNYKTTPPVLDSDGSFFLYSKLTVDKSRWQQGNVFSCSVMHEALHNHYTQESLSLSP
light: B1 light
notes: also called Ho Ab P271_09D
B14: GpH7-A5/GpH7-B3 variant A330_15Y/GpL16-k0 (antibody, human IgG1, kappa)
heavy 1: not shown
heavy 2: not shown
light: B1 light
notes: also called He Ab A330_15Y
B15: GpH7-A5/GpH7-B3 variant G237_09D/GpL16-k0 (antibody, human IgG1, kappa)
heavy 1: not shown
heavy 2: not shown
light: B1 light
notes: also called He Ab G237_09D
B16: GpH7-B3 variant P238_10E/GpL16-k0 (antibody, human IgG1, kappa)
heavy: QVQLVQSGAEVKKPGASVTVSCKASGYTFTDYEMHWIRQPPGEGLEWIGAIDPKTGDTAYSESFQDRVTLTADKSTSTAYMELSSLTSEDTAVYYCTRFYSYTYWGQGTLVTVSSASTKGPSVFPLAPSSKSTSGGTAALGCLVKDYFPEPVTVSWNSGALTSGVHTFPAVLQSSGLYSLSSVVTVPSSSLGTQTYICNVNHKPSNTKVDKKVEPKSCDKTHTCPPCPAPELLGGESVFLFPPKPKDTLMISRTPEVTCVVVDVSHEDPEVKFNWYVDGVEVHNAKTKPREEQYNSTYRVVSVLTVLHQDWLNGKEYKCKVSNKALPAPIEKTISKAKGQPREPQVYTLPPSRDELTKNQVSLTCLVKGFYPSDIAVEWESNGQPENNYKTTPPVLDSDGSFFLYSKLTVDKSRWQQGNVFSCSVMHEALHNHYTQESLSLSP
light: B1 light
notes: also called Ho Ab P238_10E
B17: GpH7-A5/GpH7-B3 variant E333_09D/GpL16-k0 (antibody, human IgG1, kappa)
heavy 1: not shown
heavy 2: not shown
light: B1 light
notes: also called He Ab E333_09D
B18: GpH7-B3 variant N325_20W/GpL16-k0 (antibody, human IgG1, kappa)
heavy: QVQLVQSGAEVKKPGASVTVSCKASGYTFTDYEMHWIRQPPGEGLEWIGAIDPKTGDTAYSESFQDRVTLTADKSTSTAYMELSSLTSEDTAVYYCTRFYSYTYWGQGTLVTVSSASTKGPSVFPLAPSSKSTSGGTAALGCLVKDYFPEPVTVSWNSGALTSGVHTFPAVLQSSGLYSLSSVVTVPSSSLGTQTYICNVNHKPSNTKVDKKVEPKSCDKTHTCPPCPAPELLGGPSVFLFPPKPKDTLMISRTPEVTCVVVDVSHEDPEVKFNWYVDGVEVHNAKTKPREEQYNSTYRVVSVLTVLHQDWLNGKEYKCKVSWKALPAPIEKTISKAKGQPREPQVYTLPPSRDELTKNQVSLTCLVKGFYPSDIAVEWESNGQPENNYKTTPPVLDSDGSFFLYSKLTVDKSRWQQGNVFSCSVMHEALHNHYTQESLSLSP
light: B1 light
notes: also called Ho Ab N325_20W
B19: GpH7-A5/GpH7-B3 variant G237_10E/GpL16-k0 (antibody, human IgG1, kappa)
heavy 1: not shown
heavy 2: not shown
light: B1 light
notes: also called He Ab G237_10E
B20: GpH7-B3 variant P238_15Y/GpL16-k0 (antibody, human IgG1, kappa)
heavy: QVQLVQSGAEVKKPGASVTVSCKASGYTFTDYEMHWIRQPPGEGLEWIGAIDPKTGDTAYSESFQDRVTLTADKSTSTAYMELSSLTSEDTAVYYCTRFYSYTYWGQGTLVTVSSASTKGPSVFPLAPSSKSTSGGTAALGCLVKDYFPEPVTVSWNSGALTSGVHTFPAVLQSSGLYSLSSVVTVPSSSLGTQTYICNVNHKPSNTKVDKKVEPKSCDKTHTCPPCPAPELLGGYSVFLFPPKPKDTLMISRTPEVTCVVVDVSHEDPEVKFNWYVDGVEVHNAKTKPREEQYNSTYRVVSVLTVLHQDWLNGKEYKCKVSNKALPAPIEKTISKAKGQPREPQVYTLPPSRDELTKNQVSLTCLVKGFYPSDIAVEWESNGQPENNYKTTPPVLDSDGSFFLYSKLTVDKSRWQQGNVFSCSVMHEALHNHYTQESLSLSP
light: B1 light
notes: also called Ho Ab P238_15Y
B21: GpH7-B3 variant P331_02A/GpL16-k0 (antibody, human IgG1, kappa)
heavy: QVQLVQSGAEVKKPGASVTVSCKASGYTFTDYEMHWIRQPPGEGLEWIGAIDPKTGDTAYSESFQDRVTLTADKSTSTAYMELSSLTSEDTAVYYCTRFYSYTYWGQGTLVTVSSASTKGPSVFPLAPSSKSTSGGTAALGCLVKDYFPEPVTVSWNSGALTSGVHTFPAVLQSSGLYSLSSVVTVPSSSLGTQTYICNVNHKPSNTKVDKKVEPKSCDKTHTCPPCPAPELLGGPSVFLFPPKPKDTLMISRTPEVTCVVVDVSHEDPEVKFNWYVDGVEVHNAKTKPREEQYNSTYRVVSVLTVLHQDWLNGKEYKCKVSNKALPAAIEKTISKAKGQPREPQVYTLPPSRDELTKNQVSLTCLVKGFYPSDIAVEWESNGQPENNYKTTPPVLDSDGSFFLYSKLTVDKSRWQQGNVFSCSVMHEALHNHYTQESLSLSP
light: B1 light
notes: also called Ho Ab P331_02A
B22: GpH7-A5/GpH7-B3 variant E333_07I/GpL16-k0 (antibody, human IgG1, kappa)
heavy 1: not shown
heavy 2: not shown
light: B1 light
notes: also called He Ab E333_07I
B23: GpH7-A5/GpH7-B3 variant G236_14T/GpL16-k0 (antibody, human IgG1, kappa)
heavy 1: not shown
heavy 2: not shown
light: B1 light
notes: also called He Ab G236_14T
B24: GpH7-B3 variant P238_03V/GpL16-k0 (antibody, human IgG1, kappa)
heavy: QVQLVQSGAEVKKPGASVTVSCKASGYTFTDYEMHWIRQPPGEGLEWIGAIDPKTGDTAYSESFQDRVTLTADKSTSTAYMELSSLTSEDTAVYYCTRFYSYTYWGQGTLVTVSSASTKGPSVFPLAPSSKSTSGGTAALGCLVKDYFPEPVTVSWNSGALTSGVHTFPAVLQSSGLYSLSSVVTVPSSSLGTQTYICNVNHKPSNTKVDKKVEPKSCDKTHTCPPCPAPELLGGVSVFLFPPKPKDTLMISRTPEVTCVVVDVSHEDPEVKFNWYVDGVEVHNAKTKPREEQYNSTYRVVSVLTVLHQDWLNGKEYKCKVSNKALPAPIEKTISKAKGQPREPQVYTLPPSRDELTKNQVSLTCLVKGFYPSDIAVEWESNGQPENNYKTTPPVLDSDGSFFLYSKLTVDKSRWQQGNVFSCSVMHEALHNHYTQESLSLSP
light: B1 light
notes: also called Ho Ab P238_03V
B25: GpH7-A5/GpH7-B3 variant G237_13S/GpL16-k0 (antibody, human IgG1, kappa)
heavy 1: not shown
heavy 2: not shown
light: B1 light
notes: also called He Ab G237_13S
B26: GpH7-A5/GpH7-B3 variant A330_05P/GpL16-k0 (antibody, human IgG1, kappa)
heavy 1: not shown
heavy 2: not shown
light: B1 light
notes: also called He Ab A330_05P
B27: GpH7-B3 variant P271_08L/GpL16-k0 (antibody, human IgG1, kappa)
heavy: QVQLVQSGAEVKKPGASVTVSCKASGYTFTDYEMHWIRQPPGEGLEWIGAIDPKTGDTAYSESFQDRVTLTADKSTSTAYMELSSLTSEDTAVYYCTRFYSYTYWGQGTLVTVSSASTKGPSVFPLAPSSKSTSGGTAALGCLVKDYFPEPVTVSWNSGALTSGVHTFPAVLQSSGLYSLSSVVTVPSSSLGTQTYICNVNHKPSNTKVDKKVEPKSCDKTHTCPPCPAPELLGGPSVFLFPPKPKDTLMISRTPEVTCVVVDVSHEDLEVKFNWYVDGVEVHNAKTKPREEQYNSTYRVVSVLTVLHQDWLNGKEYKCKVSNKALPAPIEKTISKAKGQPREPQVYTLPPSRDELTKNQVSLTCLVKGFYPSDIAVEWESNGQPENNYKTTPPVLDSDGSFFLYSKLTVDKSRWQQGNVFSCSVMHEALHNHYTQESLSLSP
light: B1 light
notes: also called Ho Ab P271_08L
B28: GpH7-A5/GpH7-B3 variant E269_09D/GpL16-k0 (antibody, human IgG1, kappa)
heavy 1: not shown
heavy 2: not shown
light: B1 light
notes: also called He Ab E269_09D
B29: GpH7-A5/GpH7-B3 variant G237_02A/GpL16-k0 (antibody, human IgG1, kappa)
heavy 1: not shown
heavy 2: not shown
light: B1 light
notes: also called He Ab G237_02A
B30: GpH7-A5/GpH7-B3 variant A327_09D/GpL16-k0 (antibody, human IgG1, kappa)
heavy 1: not shown
heavy 2: not shown
light: B1 light
notes: also called He Ab A327_09D
B31: GpH7-B3 variant P331_04F/GpL16-k0 (antibody, human IgG1, kappa)
heavy: not shown
light: B1 light
notes: also called Ho Ab P331_04F
B32: GpH7-B3 variant P238_09D/GpL16-k0 (antibody, human IgG1, kappa)
heavy: not shown
light: B1 light
notes: also called Ho Ab P238_09D
B33: GpH7-A5/GpH7-B3 variant G237_08L/GpL16-k0 (antibody, human IgG1, kappa)
heavy 1: not shown
heavy 2: not shown
light: B1 light
notes: also called He Ab G237_08L
B34: GpH7-A5/GpH7-B3 variant G237_19Q/GpL16-k0 (antibody, human IgG1, kappa)
heavy 1: not shown
heavy 2: not shown
light: B1 light
notes: also called He Ab G237_19Q
B35: GpH7-B3 variant P331_03V/GpL16-k0 (antibody, human IgG1, kappa)
heavy: not shown
light: B1 light
notes: also called Ho Ab P331_03V
B36: GpH7-A5/GpH7-B3 variant E333_04F/GpL16-k0 (antibody, human IgG1, kappa)
heavy 1: not shown
heavy 2: not shown
light: B1 light
notes: also called He Ab E333_04F
B37: GpH7-B3 variant P238_16H/GpL16-k0 (antibody, human IgG1, kappa)
heavy: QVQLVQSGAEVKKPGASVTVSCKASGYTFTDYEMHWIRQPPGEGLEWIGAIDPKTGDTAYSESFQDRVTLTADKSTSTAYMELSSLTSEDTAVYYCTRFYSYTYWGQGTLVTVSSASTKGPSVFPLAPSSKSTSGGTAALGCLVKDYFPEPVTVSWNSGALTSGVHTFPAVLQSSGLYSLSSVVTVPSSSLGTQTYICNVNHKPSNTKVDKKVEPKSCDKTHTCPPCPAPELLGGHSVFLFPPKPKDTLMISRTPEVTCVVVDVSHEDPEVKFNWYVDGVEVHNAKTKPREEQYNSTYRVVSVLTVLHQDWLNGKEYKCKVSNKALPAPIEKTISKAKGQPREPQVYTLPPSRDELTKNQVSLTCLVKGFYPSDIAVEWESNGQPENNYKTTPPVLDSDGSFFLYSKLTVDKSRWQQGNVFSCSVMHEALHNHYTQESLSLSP
light: B1 light
notes: also called Ho Ab P238_16H
B38: GpH7-A5/GpH7-B3 variant E333_05P/GpL16-k0 (antibody, human IgG1, kappa)
heavy 1: not shown
heavy 2: not shown
light: B1 light
notes: also called He Ab E333_05P
B39: GpH7-A5/GpH7-B3 variant G237_18N/GpL16-k0 (antibody, human IgG1, kappa)
heavy 1: not shown
heavy 2: not shown
light: B1 light
notes: also called He Ab G237_18N
B40: GpH7-A5/GpH7-B3 variant E333_08L/GpL16-k0 (antibody, human IgG1, kappa)
heavy 1: not shown
heavy 2: not shown
light: B1 light
notes: also called He Ab E333_08L
B41: GpH7-B3 variant P238_06M/GpL16-k0 (antibody, human IgG1, kappa)
heavy: not shown
light: B1 light
notes: also called Ho Ab P238_06M
B42: GpH7-A5/GpH7-B3 variant G237_06M/GpL16-k0 (antibody, human IgG1, kappa)
heavy 1: not shown
heavy 2: not shown
light: B1 light
notes: also called He Ab G237_06M
B43: GpH7-A5/GpH7-B3 variant A330_11K/GpL16-k0 (antibody, human IgG1, kappa)
heavy 1: not shown
heavy 2: not shown
light: B1 light
notes: also called He Ab A330_11K
B44: GpH7-A5/GpH7-B3 variant E333_15Y/GpL16-k0 (antibody, human IgG1, kappa)
heavy 1: not shown
heavy 2: not shown
light: B1 light
notes: also called He Ab E333_15Y

target: T1, FcγRIIa R; assay: SPR (Biacore), captured antibody, FcγR as analyte; relative binding activity
Protocol: Analysis of interaction between objective antibody and the FcγR was carried out using Biacore T100 (GE Healthcare). HBS-EP+ (GE Healthcare) was used as the running buffer, and the measurement temperature was set to 25° C. Chips produced by immobilizing the antigen peptide by the amine coupling method to a Series S Sencor Chip CM5 (GE Healthcare), or alternatively, chips produced by allowing preliminarily biotinylated antigen peptides to interact with and immobilize onto a Series S Sensor Chip SA (certified) (GE Healthcare) were used. Antibodies of interest were captured onto an antigen peptide-immobilized chip, and allowed to interact to each FcγR diluted with running buffer. To regenerate and repeatedly use the chip, the antibodies captured on the chip were washed off by reacting 10 mM glycine-HCl, pH 1.5.

Row | Ho/Con_2aR | He/Con_2aR | Binder
1 | 42.6 % (GpH7-B3/GpL16-k0 = 100) |  | B1
2 |  | 107 % (GpH7-A5/GpH7-B3/GpL16-k0 = 100) | B2
3 |  | 126 % (GpH7-A5/GpH7-B3/GpL16-k0 = 100) | B3
4 |  | 104 % (GpH7-A5/GpH7-B3/GpL16-k0 = 100) | B4
5 | 88.8 % (GpH7-B3/GpL16-k0 = 100) |  | B5
6 | 19.4 % (GpH7-B3/GpL16-k0 = 100) |  | B6
7 |  | 109 % (GpH7-A5/GpH7-B3/GpL16-k0 = 100) | B7
8 | 25.7 % (GpH7-B3/GpL16-k0 = 100) |  | B8
9 |  | 129 % (GpH7-A5/GpH7-B3/GpL16-k0 = 100) | B9
10 |  | 104 % (GpH7-A5/GpH7-B3/GpL16-k0 = 100) | B10
11 | 146 % (GpH7-B3/GpL16-k0 = 100) |  | B11
12 |  | 110 % (GpH7-A5/GpH7-B3/GpL16-k0 = 100) | B12
13 | 92.4 % (GpH7-B3/GpL16-k0 = 100) |  | B13
14 |  | 102 % (GpH7-A5/GpH7-B3/GpL16-k0 = 100) | B14
15 |  | 156 % (GpH7-A5/GpH7-B3/GpL16-k0 = 100) | B15
16 | 21.4 % (GpH7-B3/GpL16-k0 = 100) |  | B16
17 |  | 103 % (GpH7-A5/GpH7-B3/GpL16-k0 = 100) | B17
18 | 56 % (GpH7-B3/GpL16-k0 = 100) |  | B18
19 |  | 116 % (GpH7-A5/GpH7-B3/GpL16-k0 = 100) | B19
20 | 95.9 % (GpH7-B3/GpL16-k0 = 100) |  | B20
21 | 102 % (GpH7-B3/GpL16-k0 = 100) |  | B21
22 |  | 104 % (GpH7-A5/GpH7-B3/GpL16-k0 = 100) | B22

Row | Ho/Con_2aR | He/Con_2aR | Binder
23 |  | 103 % (GpH7-A5/GpH7-B3/GpL16-k0 = 100) | B23
24 | 116 % (GpH7-B3/GpL16-k0 = 100) |  | B24
25 |  | 121 % (GpH7-A5/GpH7-B3/GpL16-k0 = 100) | B25
26 |  | 115 % (GpH7-A5/GpH7-B3/GpL16-k0 = 100) | B26
27 | 102 % (GpH7-B3/GpL16-k0 = 100) |  | B27
28 |  | 105 % (GpH7-A5/GpH7-B3/GpL16-k0 = 100) | B28
29 |  | 126 % (GpH7-A5/GpH7-B3/GpL16-k0 = 100) | B29
30 |  | 124 % (GpH7-A5/GpH7-B3/GpL16-k0 = 100) | B30
31 | 106 % (GpH7-B3/GpL16-k0 = 100) |  | B31
32 | 13 % (GpH7-B3/GpL16-k0 = 100) |  | B32
33 |  | 133 % (GpH7-A5/GpH7-B3/GpL16-k0 = 100) | B33
34 |  | 121 % (GpH7-A5/GpH7-B3/GpL16-k0 = 100) | B34
35 | 89.1 % (GpH7-B3/GpL16-k0 = 100) |  | B35
36 |  | 102 % (GpH7-A5/GpH7-B3/GpL16-k0 = 100) | B36
37 | 25.5 % (GpH7-B3/GpL16-k0 = 100) |  | B37
38 |  | 105 % (GpH7-A5/GpH7-B3/GpL16-k0 = 100) | B38
39 |  | 150 % (GpH7-A5/GpH7-B3/GpL16-k0 = 100) | B39
40 |  | 103 % (GpH7-A5/GpH7-B3/GpL16-k0 = 100) | B40
41 | 88.9 % (GpH7-B3/GpL16-k0 = 100) |  | B41
42 |  | 133 % (GpH7-A5/GpH7-B3/GpL16-k0 = 100) | B42
43 |  | 110 % (GpH7-A5/GpH7-B3/GpL16-k0 = 100) | B43
44 |  | 101 % (GpH7-A5/GpH7-B3/GpL16-k0 = 100) | B44
